# Results taken from publication doi:10.1101/2021.03.22.436414 (bioRxiv, 2021).
# B1: Recombinant S. cerevisiae septin octamer capped with Cdc11-SNAP (Cdc11-Cdc12-Cdc3-Cdc10-Cdc10-Cdc3-Cdc12-Cdc11) (complex)
# chain 1: MSGIIDASSALRKRKHLKRGITFTVMIVGQSGSGRSTFINTLCGQQVVDTSTTILLPTDTSTEIDLQLREETVELEDDEGVKIQLNIIDTPGFGDSLDNSPSFEIISDYIRHQYDEILLEESRVRRNPRFKDGRVHCCLYLINPTGHGLKEIDVEFIRQLGSLVNIIPVISKSDSLTRDELKLNKKLIMEDIDRWNLPIYNFPFDEDEISDEDYETNMYLRTLLPFAIIGSNEVYEMGGDVGTIRGRKYPWGILDVEDSSISDFVILRNALLISHLHDLKNYTHEILYERYRTEALSGESVAAESIRPNLTKLNGSSSSSTTTRRNTNPFKQSNNINNDVLNPASDMHGQSTGENNETYMTREEQIRLEEERLKAFEERVQQELLLKRQELLQREKELREIEARLEKEAKIKQEE
# chain 2: MSAATATAAPVPPPVGISNLPNQRYKIVNEEGGTFTVMLCGESGLGKTTFINTLFQTVLKRADGQQHRQEPIRKTVEIDITRALLEEKHFELRVNVIDTPGFGDNVNNNKAWQPLVDFIDDQHDSYMRQEQQPYRTKKFDLRVHAVLYFIRPTGHGLKPIDIETMKRLSTRANLIPVIAKADTLTAQELQQFKSRIRQVIEAQEIRIFTPPLDADSKEDAKSGSNPDSAAVEHARQLIEAMPFAIVGSEKKFDNGQGTQVVARKYPWGLVEIENDSHCDFRKLRALLLRTYLLDLISTTQEMHYETYRRLRLEGHENTGEGNEDFTLPAIAPARKLSHNPRYKEEENALKKYFTDQVKAEEQRFRQWEQNIVNERIRLNGDLEEIQGKVKKLEEQVKSLQVKKSHLK
# chain 3: MSLKEEQVSIKQDPEQEERQHDQFNDVQIKQESQDHDGVDSQYTNGTQNDDSERFEAAESDVKVEPGLGMGITSSQSEKGQVLPDQPEIKFIRRQINGYVGFANLPKQWHRRSIKNGFSFNLLCVGPDGIGKTTLMKTLFNNDDIEANLVKDYEEELANDQEEEEGQGEGHENQSQEQRHKVKIKSYESVIEENGVKLNLNVIDTEGFGDFLNNDQKSWDPIIKEIDSRFDQYLDAENKINRHSINDKRIHACLYFIEPTGHYLKPLDLKFMQSVYEKCNLIPVIAKSDILTDEEILSFKKTIMNQLIQSNIELFKPPIYSNDDAENSHLSERLFSSLPYAVIGSNDIVENYSGNQVRGRSYPWGVIEVDNDNHSDFNLLKNLLIKQFMEELKERTSKILYENYRSSKLAKLGIKQDNSVFKEFDPISKQQEEKTLHEAKLAKLEIEMKTVFQQKVSEKEKKLQKSETELFARHKEMKEKLTKQLKALEDKKKQLELSINSASPNVNHSPVPTKKKGFLR
# chain 4: MDPLSSVQPASYVGFDTITNQIEHRLLKKGFQFNIMVVGQSGLGKSTLINTLFASHLIDSATGDDISALPVTKTTEMKISTHTLVEDRVRLNINVIDTPGFGDFIDNSKAWEPIVKYIKEQHSQYLRKELTAQRERFITDTRVHAILYFLQPNGKELSRLDVEALKRLTEIANVIPVIGKSDTLTLDERTEFRELIQNEFEKYNFKIYPYDSEELTDEELELNRSVRSIIPFAVVGSENEIEINGETFRGRKTRWSAINVEDINQCDFVYLREFLIRTHLQDLIETTSYIHYEGFRARQLIALKENANSRSSAHMSSNAIQR
# modifications: Alexafluor488 dye on the SNAP tag
# Molecular target: the molecule itself
# Experiment: TIRF microscopy of filament lengths at steady state
protein,measurement,value
B1,Kd,84.5 ± 8.5 nM
